According to publication PMC7235987 (ACS Catalysis, 2020):

Tests used:
Assay in all cases: SEC-MALS
[1] = biological target: CdChdC variant H118A (Corynebacterium diphtheriae) (UniProt Q6NGV6)
[2] = biological target: CdChdC variant H118A/Y135A (Corynebacterium diphtheriae) (UniProt Q6NGV6)
[3] = biological target: CdChdC variant Y135A (Corynebacterium diphtheriae) (UniProt Q6NGV6)
[4] = biological target: the molecule itself

CdChdC variant H118A (from UniProt Q6NGV6 1-234) (enzyme)
stoichiometry N [1]: 5

CdChdC variant H118A/Y135A (from UniProt Q6NGV6 1-234) (enzyme)
stoichiometry N [2]: 5

CdChdC variant Y135A (from UniProt Q6NGV6 1-234) (enzyme)
stoichiometry N [3]: 5

B1: coproheme decarboxylase from Corynebacterium diphtheriae (CdChdC), wild-type (enzyme)
chain: MAEKLNFEELNSMQRYSQFAVFRAIPGALGSDRAEIVAQAQSFFDGLETAGKVEVRGIYDLAGCRAEADFMIWWIAEEFEEIQAAFARFRRETVLGQVSEVAWLGNSLHRPAEFNRSHLPSFIMGEIPGDWITVYPFVRSYDWYIMDPQKRRKILAEHGQAARDFPDVRANTVPAFALGDYEWMLAFEAPRLDRIVDLMHKMRYTEARLHVREETPFFTGRRVSEVSELVNVLP
stoichiometry N [4]: 5
